The nanobody polyreactivity screen of Harvey et al. (2022)

Assay: yeast display, Sf9 membrane polyspecificity reagent, FACS + sequencing; frameworks hold sequencing errors
How it was run: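 Galactose-induced (36–48 hours) yeast carrying a synthetic nanobody display library were exposed to 10% biotinylated, detergent-solubilized Sf9 membrane reagent at 4 °C for 1 hour. FACS followed streptavidin microbead enrichment, using low and high (top ~1%) gates for expression (anti-HA) and reagent binding (streptavidin). Colony PCR, MiSeq 2 × 250 sequencing and CDR-length filtering followed. Labels for polyreactivity reflect the gate of origin.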
For “QVQLVESGGGLVQAGGSLRLSCAASGGILDTYAMGWDRQAPGKERELVAAITSGGNTNYADSVKGRFTISRDNAKNTFYLQMNSLKPEDTAVYFCNVVSWYYFFRPWEYDYWGQGTQVTVSS”, the “polyreactivity (PSR sort gate)” value was “low polyreactivity”. With “QVQLVESGGGLVQAGGSLRLSCAASGGILRDYAMGWSRQAPGKERELVAAISRGGRTNYADSVKGRFTISRDYSKNTVYLQLNSLKPEDTAVYYCAKRYARGENDYWGQGTQVNVSS” the “polyreactivity (PSR sort gate)” value was “high polyreactivity”. With “QVQLVESGGGLVQAGGSLRLSCAASGGISLYYVMGWYRQAPGKERELVADISADDSTNYADSVKGRFTISRDNAKNTVYLQMNSLKPEDTAVYYCAAVPGLFYLPYDYWGQGTQVTVSS” the “polyreactivity (PSR sort gate)” value was “low polyreactivity”. With “QVQLVESGGGLVQAGGSLRLSCAASGGISMDNVMGWYRQAPGKERELVAAISKSGGRTFYADSVKGRFTISRDNAKNTVYLQMNSLKPEDTAVYYCAKLYKSKPYWYEHEYWGQGTQVTVSS” the “polyreactivity (PSR sort gate)” value was “high polyreactivity”. With “QVQLVESGGGLVQAGGSLRLSCAASGGISYRYAMGWYRQAPGKERELVARISRGTGTHYADSVKGRFTISRDNAKNTVYLQMNSLTPEDTAVYYCAAESYRGYYLSLNYWGQGTQVTVSS” the “polyreactivity (PSR sort gate)” value was “high polyreactivity”. In the case of “QVQLVESGGGLVQAGGSLRLSCAASGGIVSINAMGWYRQAPGKERELVAAIRWNSGRTYYADSVKGRFTISRDNAKNTVYIQMNSLKPEDTAVYYCAVRDYISWEDYYWGQGTQVTVSS”, the “polyreactivity (PSR sort gate)” value is reported as “high polyreactivity”. With “QVQLVESGGGLVQAGGSLRLSCAASGGIYLDYAMGWYRQAPGKERELVADINSGADTSYADSVKGRFTISRDNAKNTVYLQMNSLKPEDTAVYYCADDIYVFNGQVYSYGYGYWGQGTQVTVSS” the “polyreactivity (PSR sort gate)” value was “low polyreactivity”. For “QVQLVESGGGLVQAGGSLRLSCAASGGIYYYAMGWDRQAPGKERELVAAISSGGGNTNYADSVKGRFTISRDNAKNTVYLQMNSLKPVDTAVYYCAAEHPVTYRTSKFDYWGQGTQVTVSS”, the “polyreactivity (PSR sort gate)” value was “low polyreactivity”. In the case of “QVQLVESGGGLVQAGGSLRLSCAASGGIYYYAMGWYRPAPGKERELVSAISSGGGNTNYADSVKGRFTISRDNAKNTVYLQMISLKPEDTAVYYCYADRAVVLSTTVWGEYDYWGQGTQVNVSS”, the “polyreactivity (PSR sort gate)” value is reported as “low polyreactivity”. For “QVQLVESGGGLVQAGGSLRLSCAASGGIYYYAMGWYRQAPGKERELVAAISSGGGNTNYADSVKGRFTLSRDNAKNTVYLQMNSLKPEDTAVYYCATDGFIPTYSYTEIGYDYWGQGTQVTVSS”, the “polyreactivity (PSR sort gate)” value was “low polyreactivity”. For “QVQLVESGGGLVQAGGSLRLSCAASGGLFIRYGMGWYRPAPGKERELVAGIDSGGGTNYADSVKGRFTISRDNAKNTVYLQMNSLKPEDTAVYYCARRQGYGFLYGRPYGYWGQGTQVTVSS”, the “polyreactivity (PSR sort gate)” value was “low polyreactivity”. With “QVQLVESGGGLVQAGGSLRLSCAASGGMGWYRQAPGKERELVATISSVGSTNYADSVKGRFTISRDNAKNTVYLQMNSLKPEDTAVYYCNATGVQYFLYGYWGQGTQVTVSS” the “polyreactivity (PSR sort gate)” value was “low polyreactivity”. With “QVQLVESGGGLVQAGGSLRLSCAASGGNFKQYAMGWYRQAPGKERELVAAISRRGGSTYYADSVKGRFTISRDNAKNTVYLQMNSLKPEDTAVYYCAAPGPTQSTQRGGYWGQGTQVTVSS” the “polyreactivity (PSR sort gate)” value was “high polyreactivity”. In the case of “QVQLVESGGGLVQAGGSLRLSCAASGGPFKRNAMGWSRQAPGKERELVAAISTSGATTYYADSVKGRFTISRDTAKNTVYLQMNSLKPEDTAVYYCAARIRGYVYKGMNYWGQGTQVTVSS”, the “polyreactivity (PSR sort gate)” value is reported as “high polyreactivity”. For “QVQLVESGGGLVQAGGSLRLSCAASGGPFTYYTMGCYRQAPGKERELVAAISTGGRTYYADSVKGRFTISRDNAKNTVYLQMNCLKAEATAVYYCYPLYDETDVLGEFDYWGQGTQVTVSS”, the “polyreactivity (PSR sort gate)” value was “low polyreactivity”. For “QVQLVESGGGLVQAGGSLRLSCAASGGPFWYYAMGWYRQAPGKERELVAAITRGGSTSYADSVKGRFTISRDNAKKTVYLQMNSLKPEDTAVYYCNARPYSSYWRYNYWGQGTQVTVSS”, the “polyreactivity (PSR sort gate)” value was “high polyreactivity”. For “QVQLVESGGGLVQAGGSLRLSCAASGGTCSFYTMGWYRQAPGKERELVAAISRSGGRTYYADSVKGRFTISRDNAQNTVYLQMNSLKPEDTAVYYCAAERFSNIYTTMGYWGQGTQVTVSS”, the “polyreactivity (PSR sort gate)” value was “high polyreactivity”. In the case of “QVQLVESGGGLVQAGGSLRLSCAASGGTFAANDMGWYRQAPGKEREFVAAIDWSGGSTYYADSVKGRFTISRDNAKNTVYLQMNSLKPVDTAVYYCNAGPAVRSAYSTPYYDYWGQGTQVTVSS”, the “polyreactivity (PSR sort gate)” value is reported as “low polyreactivity”. For “QVQLVESGGGLVQAGGSLRLSCAASGGTFAFNAMGWYRQAPGKERELVATIRYSGGSTYADSVKGRFTISRDNAKNTVYLQMNSLKPEDTAVYYCAADVIYWFSGEYDYWGQGTQVTVSS”, the “polyreactivity (PSR sort gate)” value was “low polyreactivity”. For “QVQLVESGGGLVQAGGSLRLSCAASGGTFAVNAMGWYRQAPGKEREFVAAISSRGSTSYADSVKGRFTISRDNAKNTVYLQMNSLKPEDTAVYYCAKRQGYWFDYWGQGTQVTVSS”, the “polyreactivity (PSR sort gate)” value was “high polyreactivity”. With “QVQLVESGGGLVQAGGSLRLSCAASGGTFCRNVMGWYRQAPGKERELVAAISRRGSSTYYADSVKGRFTISRDNAKNTVYLQMNSLKPEDTAVYYCARDQYTGADEAGDDYWGQGTQVTVSS” the “polyreactivity (PSR sort gate)” value was “high polyreactivity”. For “QVQLVESGGGLVQAGGSLRLSCAASGGTFDYNAMGWYRQAPGKERELVAAITSGASTYYADSVKGRFTISRDNAKNTVYLQMNSLKPEDTAVYYCAKGPTPGYDYWGQGTQVTVSS”, the “polyreactivity (PSR sort gate)” value was “low polyreactivity”. In the case of “QVQLVESGGGLVQAGGSLRLSCAASGGTFDYYAMGWYRQAPGKERELVAAITRGSTNYADSVKGRFTISRDNAKNTVYFQMNSLKPEDTAVYYCAARGRFVTPQPSYDYWGQGTQVTVSS”, the “polyreactivity (PSR sort gate)” value is reported as “high polyreactivity”. For “QVQLVESGGGLVQAGGSLRLSCAASGGTFEYNAMGWYRQAPGKERELVAAISKSGGRTYFADSVKGRFTISRDNAMNTVYLQMNSLKPEDTAVYYCAKRYVWGQGTQVTVSS”, the “polyreactivity (PSR sort gate)” value was “high polyreactivity”. For “QVQLVESGGGLVQAGGSLRLSCAASGGTFEYYAMGWDRQAPGKESELVAGITGGGVSTYYADSVKGRFTISRDNAKNPVYLQKNSLKPEDTAVYYSAAAYYQDNFWWYYYWGQGTQVNVSS”, the “polyreactivity (PSR sort gate)” value was “high polyreactivity”. With “QVQLVESGGGLVQAGGSLRLSCAASGGTFEYYPMGWYRQAPGKETEMVAGITWGGVSTYYADSVKGRFTLSRDTAKNTVYLQMNSLKPEDTSVFYCAAAYSQDNVWWYYYWGQGTQVTVSS” the “polyreactivity (PSR sort gate)” value was “high polyreactivity”. With “QVQLVESGGGLVQAGGSLRLSCAASGGTFFLYAMGWYRQAPGTERELVADISSGDSTNYADSVKGRFTISRDNAKNTVYLQMNSLKPEDTAVYYCAADGKLEYVNGYNLYYWGQGTQVTVSS” the “polyreactivity (PSR sort gate)” value was “low polyreactivity”. In the case of “QVQLVESGGGLVQAGGSLRLSCAASGGTFFTNAMGWYRHAPGKERELVAVITGSGGRTYYADSVKGRFTISRDNAMNTVYLQMNSLKPEDTAVYYCAARGYSWGQGTQVTLSS”, the “polyreactivity (PSR sort gate)” value is reported as “high polyreactivity”. In the case of “QVQLVESGGGLVQAGGSLRLSCAASGGTFFWYGMGWYRQAPGKERELVAAITSGGSTYYADSVKGRFTISRDNAKNTVYLQMNSLKPEDTAVYYCATENRFRGWYPTRSSLPYEYWGQGTQVTVSS”, the “polyreactivity (PSR sort gate)” value is reported as “low polyreactivity”. In the case of “QVQLVESGGGLVQAGGSLRLSCAASGGTFGGYAMGWYRQAPGKERELVAVISQSGGTTYYADSVKGRFTISRDNAKNTVYLQMNSLKPEDTAVYYCNAYTYYKRFGYWGQGTQVTVSS”, the “polyreactivity (PSR sort gate)” value is reported as “high polyreactivity”. In the case of “QVQLVESGGGLVQAGGSLRLSCAASGGTFGHYTMGWYRQAPGKERELVAAISGSGGTTYYADSVKGRFTISRDNAKNTVYLQINSLKPEDTAVYFCNKGIPTRSVRSYDYWGQGTKVTVSS”, the “polyreactivity (PSR sort gate)” value is reported as “high polyreactivity”. For “QVQLVESGGGLVQAGGSLRLSCAASGGTFGRYAMGWYRQAPGKERELFAAITWGGTRTYYADSVKGRFTISRDNAKNTVYLQMNSLKPEDTAGYYCAAYSNYPVFDYNYWGQGTQVTVSS”, the “polyreactivity (PSR sort gate)” value was “high polyreactivity”. With “QVQLVESGGGLVQAGGSLRLSCAASGGTFGRYAMGWYRQAPGKERELVASITTGGRTNYADSVKGRFTISRDNAKNTVYLQMNSLKPEDTAVYYCAKKRYGYPVPFYYWGQGTQVTVSS” the “polyreactivity (PSR sort gate)” value was “high polyreactivity”. In the case of “QVQLVESGGGLVQAGGSLRLSCAASGGTFGSYAMGWYRQAPGKERELVAAIDYSGADTYYADSVKGRFTISRDNAKNTVFLQMNSLKPEDTAVYYCNAEFESGHDLDWYDYWGQGTQVTVSS”, the “polyreactivity (PSR sort gate)” value is reported as “low polyreactivity”. With “QVQLVESGGGLVQAGGSLRLSCAASGGTFGSYAMGWYRQAPGKERELVAAIRSGDRTYYADSVKGRFTISRDNAKNTVYLQMNSLKPEDTAVYYCAKLRYPYLFWDDSEYWGQGTQVTVSS” the “polyreactivity (PSR sort gate)” value was “low polyreactivity”. In the case of “QVQLVESGGGLVQAGGSLRLSCAASGGTFGTNTMGWYRPAHGKERELVAAISKRGGRTYYADSVKGRFTISRDNAKITVYLQMNSLKPEDTAVYYCAADTGGNPKYDYWGQGTQVTVSS”, the “polyreactivity (PSR sort gate)” value is reported as “high polyreactivity”. For “QVQLVESGGGLVQAGGSLRLSCAASGGTFGTYAMGWYRQAPGKERELVAAITYRGGRTYYADSVKGRFTISRDNAKYTVYLQLDCVKPEDSAVYYCAKDVRGHRHPYSLRDYWGEGTQVTVSS”, the “polyreactivity (PSR sort gate)” value was “high polyreactivity”. In the case of “QVQLVESGGGLVQAGGSLRLSCAASGGTFGYNAMGWYRQAPGKERELVAAISYTGDSTYYADSVKGRFTISRDNAKNTVDLQMNSLKPEDTAVYYCAASVYYYRYNYWGQATQVTVSS”, the “polyreactivity (PSR sort gate)” value is reported as “low polyreactivity”. In the case of “QVQLVESGGGLVQAGGSLRLSCAASGGTFGYNVMGWYRQAPGKERELVAAISYSVGGTYYADSVKGRFTISRDNAMNTVYLQMNSLKPEDTAVYYCAATGRRRTYSEYEYWGQGTQVTVSS”, the “polyreactivity (PSR sort gate)” value is reported as “high polyreactivity”. With “QVQLVESGGGLVQAGGSLRLSCAASGGTFHRYAMGWYRQAPGKERELVAAISGSGASTYYADSVKGRFTISRDNAKNTVYLQMNSLKPEDTAVYYCNALWYYQIGPRGDHWGQGTQVTVSS” the “polyreactivity (PSR sort gate)” value was “high polyreactivity”. In the case of “QVQLVESGGGLVQAGGSLRLSCAASGGTFKLYAMGWYRQAPGKERELVAAISRRGGSTYYADSVKGRFTISRDNAKNTVYLQMNSLKPEDTAVYYCAAPGPTQSTQRGGYWGQGTQVTVSS”, the “polyreactivity (PSR sort gate)” value is reported as “high polyreactivity”. In the case of “QVQLVESGGGLVQAGGSLRLSCAASGGTFKTNAMGWYRQAPGKERELVAAITGSGTSTYYADSVKGRFTISRDNAKNTVYLQMNSLKPEDTAVYYCAADKLYQPGIGDDYWGQGTQVTVSS”, the “polyreactivity (PSR sort gate)” value is reported as “low polyreactivity”. In the case of “QVQLVESGGGLVQAGGSLRLSCAASGGTFKTYAMGWYRQAPGKERELVAAITSSSSRTHYADSVKGRFTISRDNAKYTVYLQMNSLKPEVTAVYYCAAAIPSYTRTGYWGQGTQVTVSS”, the “polyreactivity (PSR sort gate)” value is reported as “high polyreactivity”.
